Patent publication US20110251126A1, “INTESTINAL TREATMENT” (priority 2008, published 2011)
Changes are numbered by the printed parent chain. Square brackets hold non-standard residues; d marks the D form. Ends that are not written are not given here. Nle = CCCC[C@H](N)C(=O)O

B1: [Ala30]hPP3-36 (peptide)
peptide: LEPVYPGDNATPEQMAQYAADLRRYINALTRPRY
modifications: ends and bridges not checked
B2: [Glu10]hPP3-36 (peptide)
peptide: B1 peptide with D8E, A28M
modifications: ends and bridges not checked
B3: [Leu17; Ser30]hPP3-36 (peptide)
peptide: B1 peptide with M15L, A28S
modifications: ends and bridges not checked
B4: [Asn30]hPP3-36 (peptide)
peptide: B1 peptide with A28N
modifications: ends and bridges not checked
B5: [Glu10,Leu17,Thr30]hPP3-36 (peptide)
peptide: B1 peptide with D8E, M15L, A28T
modifications: ends and bridges not checked
B6: [Thr30]hPP3-36 (peptide)
peptide: B1 peptide with A28T
modifications: ends and bridges not checked
B7: [Gln30]hPP3-36 (peptide)
peptide: B1 peptide with A28Q
modifications: ends and bridges not checked
B8: [Leu17; Thr30]hPP3-36 (peptide)
peptide: B1 peptide with M15L, A28T
modifications: ends and bridges not checked
B9: [Ala30]hPP (peptide)
peptide: APLEPVYPGDNATPEQMAQYAADLRRYINALTRPRY
modifications: ends and bridges not checked
B10: [Glu10,Nle17,Nle30]hPP (peptide)
peptide: B9 peptide with D10E, M17X, A30X
modifications: norleucine (Nle) at positions 17 and 30
B11: [Glu10]hPP (peptide)
peptide: B9 peptide with D10E, A30M
modifications: ends and bridges not checked
B12: [Glu10,Leu17,Thr30]hPP (peptide)
peptide: B9 peptide with D10E, M17L, A30T
modifications: ends and bridges not checked
B13: [Gln30]hPP (peptide)
peptide: B9 peptide with A30Q
modifications: ends and bridges not checked
B14: [Leu17; Ser30]hPP (peptide)
peptide: B9 peptide with M17L, A30S
modifications: ends and bridges not checked
B15: [Thr30]hPP (peptide)
peptide: B9 peptide with A30T
modifications: ends and bridges not checked
B16: [Leu17; Thr30]hPP (peptide)
peptide: B9 peptide with M17L, A30T
modifications: ends and bridges not checked
B17: [Nle17,Nle30]hPP (peptide)
peptide: B9 peptide with M17X, A30X
modifications: norleucine (Nle) at positions 17 and 30
B18: [Asn30]hPP (peptide)
peptide: B9 peptide with A30N
modifications: ends and bridges not checked
B19: [Nle17,Nle30]hPP3-36 (peptide)
peptide: LEPVYPGDNATPEQ[Nle]AQYAADLRRYIN[Nle]LTRPRY
modifications: ends and bridges not checked
B20: [Thr30]hPP2-36 (peptide)
peptide: PLEPVYPGDNATPEQMAQYAADLRRYINTLTRPRY
modifications: ends and bridges not checked
B21: [Gln30]hPP2-36 (peptide)
peptide: B20 peptide with T29Q
modifications: ends and bridges not checked
B22: [Asn30]hPP2-36 (peptide)
peptide: B20 peptide with T29N
modifications: ends and bridges not checked
B23: [Glu10]hPP2-36 (peptide)
peptide: B20 peptide with D9E, T29M
modifications: ends and bridges not checked
B24: [Leu17; Ser30]hPP2-36 (peptide)
peptide: B20 peptide with M16L, T29S
modifications: ends and bridges not checked
B25: [Glu10,Nle17,Nle30]hPP2-36 (peptide)
peptide: B20 peptide with D9E, M16X, T29X
modifications: norleucine (Nle) at positions 17 and 30, numbered on full-length hPP (SEQ ID No:3)
B26: [Glu10,Leu17,Thr30]hPP2-36 (peptide)
peptide: B20 peptide with D9E, M16L
modifications: ends and bridges not checked
B27: [Leu17; Thr30]hPP2-36 (peptide)
peptide: B20 peptide with M16L
modifications: ends and bridges not checked
B28: [Ala30]hPP2-36 (peptide)
peptide: B20 peptide with T29A
modifications: ends and bridges not checked
B29: [Nle17,Nle30]hPP2-36 (peptide)
peptide: B20 peptide with M16X, T29X
modifications: norleucine (Nle) at positions 17 and 30, numbered on full-length hPP (SEQ ID No:3)
B30: hPP2-36 (peptide)
peptide: PLEPVYPGDNATPEQMAQYAADLRRYINMLTRPRY-NH2
B31: [Glu10,Nle17,Nle30]hPP3-36 (peptide)
peptide: LEPVYPGENATPEQ[Nle]AQYAADLRRYIN[Nle]LTRPRY
modifications: ends and bridges not checked
B32: hPP3-36 (peptide)
peptide: LEPVYPGDNATPEQMAQYAADLRRYINMLTRPRY-NH2

The binders below were run against human Y4 receptor (human, UniProt P50391 1-375) (assay: cell-based or functional assay).
Chain of human Y4 receptor (P50391 whole entry): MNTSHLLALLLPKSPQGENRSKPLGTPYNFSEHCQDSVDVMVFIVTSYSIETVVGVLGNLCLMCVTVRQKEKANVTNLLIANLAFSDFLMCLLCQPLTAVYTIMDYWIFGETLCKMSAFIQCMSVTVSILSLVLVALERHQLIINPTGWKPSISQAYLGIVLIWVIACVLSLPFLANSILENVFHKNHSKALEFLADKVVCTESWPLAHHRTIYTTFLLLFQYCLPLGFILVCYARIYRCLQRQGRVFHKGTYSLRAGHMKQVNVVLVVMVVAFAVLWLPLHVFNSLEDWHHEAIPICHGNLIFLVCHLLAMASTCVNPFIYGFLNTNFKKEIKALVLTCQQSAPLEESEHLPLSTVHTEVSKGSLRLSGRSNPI

| agonist potency (inositol phosphate turnover, transfected COS-7 cells): fold greater at Y4 than at Y1 receptor [fold] | agonist potency (inositol phosphate turnover, transfected COS-7 cells): fold greater at Y4 than at Y2 receptor [fold] | Binder |
| --- | --- | --- |
| ≥ 200 | ≥ 1000 | B1 |
| ≥ 200 | ≥ 1000 | B2 |
| ≥ 200 | ≥ 1000 | B3 |
| ≥ 200 | ≥ 1000 | B4 |
| ≥ 200 | ≥ 1000 | B5 |
| ≥ 200 | ≥ 1000 | B6 |
| ≥ 200 | ≥ 1000 | B7 |
| ≥ 200 | ≥ 1000 | B8 |
| ≥ 200 | ≥ 1000 | B9 |
| ≥ 200 | ≥ 1000 | B10 |
| ≥ 200 | ≥ 1000 | B11 |
| ≥ 200 | ≥ 1000 | B12 |
| ≥ 200 | ≥ 1000 | B13 |
| ≥ 200 | ≥ 1000 | B14 |
| ≥ 200 | ≥ 1000 | B15 |
| ≥ 200 | ≥ 1000 | B16 |

| agonist potency (inositol phosphate turnover, transfected COS-7 cells): fold greater at Y4 than at Y1 receptor [fold] | agonist potency (inositol phosphate turnover, transfected COS-7 cells): fold greater at Y4 than at Y2 receptor [fold] | Binder |
| --- | --- | --- |
| ≥ 200 | ≥ 1000 | B17 |
| ≥ 200 | ≥ 1000 | B18 |
| ≥ 200 | ≥ 1000 | B19 |
| ≥ 200 | ≥ 1000 | B20 |
| ≥ 200 | ≥ 1000 | B21 |
| ≥ 200 | ≥ 1000 | B22 |
| ≥ 200 | ≥ 1000 | B23 |
| ≥ 200 | ≥ 1000 | B24 |
| ≥ 200 | ≥ 1000 | B25 |
| ≥ 200 | ≥ 1000 | B26 |
| ≥ 200 | ≥ 1000 | B27 |
| ≥ 200 | ≥ 1000 | B28 |
| ≥ 200 | ≥ 1000 | B29 |
| ≥ 200 | ≥ 1000 | B30 |
| ≥ 200 | ≥ 1000 | B31 |
| ≥ 200 | ≥ 1000 | B32 |
